According to publication PMC6003631:

Legend:
[1] = biological target: human μ receptor-Rluc (human) (UniProt P35372)
rat HA-μ receptor (rat) = rat HA-μ receptor (rat) (UniProt P33535)
UniProt P33535, sequence (P33535 whole entry): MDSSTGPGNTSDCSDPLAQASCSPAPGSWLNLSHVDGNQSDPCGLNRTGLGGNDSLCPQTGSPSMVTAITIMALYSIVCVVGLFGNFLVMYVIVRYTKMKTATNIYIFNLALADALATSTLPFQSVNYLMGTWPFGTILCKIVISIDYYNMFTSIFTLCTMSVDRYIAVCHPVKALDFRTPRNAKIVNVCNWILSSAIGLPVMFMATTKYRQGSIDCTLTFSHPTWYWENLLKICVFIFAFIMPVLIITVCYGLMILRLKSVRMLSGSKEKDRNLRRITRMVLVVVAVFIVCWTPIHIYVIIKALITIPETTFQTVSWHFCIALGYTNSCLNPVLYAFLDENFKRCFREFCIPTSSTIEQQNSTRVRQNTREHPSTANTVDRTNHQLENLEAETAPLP

UniProt P35372, sequence (P35372 whole entry): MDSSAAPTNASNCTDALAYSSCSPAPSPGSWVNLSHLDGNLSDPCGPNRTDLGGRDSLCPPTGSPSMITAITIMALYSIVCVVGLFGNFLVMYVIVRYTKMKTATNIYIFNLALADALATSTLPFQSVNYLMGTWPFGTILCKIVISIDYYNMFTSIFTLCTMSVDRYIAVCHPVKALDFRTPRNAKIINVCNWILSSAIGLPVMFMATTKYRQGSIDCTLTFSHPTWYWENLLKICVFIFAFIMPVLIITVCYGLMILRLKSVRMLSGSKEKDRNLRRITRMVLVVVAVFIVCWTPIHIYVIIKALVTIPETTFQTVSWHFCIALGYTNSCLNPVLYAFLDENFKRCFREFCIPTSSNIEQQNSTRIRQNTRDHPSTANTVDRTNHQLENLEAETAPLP

Q: How did the arrestin-3 recruitment to the μ receptor (BRET between human μ receptor-Rluc and arrestin-3-GFP) in HEK 293 cells, EC50 [1] turn out when “D-Ala^2, N-MePhe^4, Gly-ol-enkephalin (peptide)” was run?
A: 1200 nM

Q: And the Gi activation (decrease of the BRET signal between Gαi1-RlucII and GFP10-Gγ2) in HEK 293 cells expressing rat HA-μ receptors, EC50 (rat HA-μ receptor (rat))?
A: 390 nM

Q: What about the Gi activation (decrease of the BRET signal between Gαi1-RlucII and GFP10-Gγ2) in HEK 293 cells expressing rat HA-μ receptors, maximum response (BRET ratio) (rat HA-μ receptor (rat)) of the same substance?
A: 12.4 BRET ratio
